Measured values from the supplement of paper PMC10126150.
± gives the standard deviation of the averaged measurements.

system: ATP; test: switch fluorescence ratio, 500 uM ATP over buffer (Cy3 cluster intensity, sum of 5 cycles each) (fold (ratio)); higher = stronger signal-on switching upon ATP binding; sequences stand for … in TCGTCGGCAGCGTCAGATGTGTATAAGAGACAGTTTTTTTTTTTTTTTTTTTTTTTTT…TC; conditions: aptamer strand: ATP DNA aptamer (quencher-CACCTGGGGGAGTATTGCGGAGGAAGG + anchor), 100 nM annealed; ATP concentration: 500 uM
In short: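 The quencher-labelled ATP aptamer, at 100 nM, was annealed to Cy3-labelled switching-strand clusters on a modified Illumina MiSeq flow-cell. The clusters were imaged in selection buffer, then after 15 min with 500 uM ATP at 22 °C, and this buffer/ATP cycle ran five times with NaOH stripping and re-annealing between runs. Per-cluster fluorescence ratios, summed target-cycle over summed buffer-cycle Cy3 intensity, were averaged per switch-domain sequence. Clusters outside 100-1000 RFU were excluded.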
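Also: ATP exposure 15 min at 22 °C before imaging.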

Sequence | switch fluorescence ratio
CCTTGGGTTG | 1.03 ± 0.032
ATTTGGGT | 0.999 ± 0.021
TCGGGTAGTT | 1.04 ± 0.055
AGATCTAAGG | 1 ± 0.019
TTCGACTCCT | 1.09 ± 0.087
AGGGGTTCCG | 0.979 ± 0.042
TCGAGGGGTG | 1.01 ± 0.039
TTGGGTGTTA | 0.9907 ± 0.0021
TGCCGAGTGC | 1.046 ± 0.0083
AGAGTTAAGT | 0.989 ± 0.032
GATTATAAGG | 1.007 ± 0.01
CGTTAGGATG | 0.984 ± 0.011
AGAACACAGT | 1.006 ± 0.0014
GGGGCATTGG | 0.99 ± 0.011
TGTCGGGCAG | 0.9843 ± 0.0038
TAAAATTGAT | 0.9818 ± 0.0038
TTTTGCATTC | 1.1 ± 0.053
TTTTGTAAGT | 0.992 ± 0.029
TTTTATATCC | 0.963 ± 0.028
AAACGCATCT | 1.1304 ± 0.0008
GGCCGTAGCG | 0.986 ± 0.025
AGGTAGATAA | 0.99834 ± 0.00052
TACTGGAGGC | 1.02 ± 0.043
AGGGGAATGC | 1.09 ± 0.084
GCGGGGGTTC | 1.04 ± 0.05

Sequence | switch fluorescence ratio
TTGGTTGACG | 0.963 ± 0.041
ATTTTCAATG | 1 ± 0.018
AATTAATGAT | 0.981 ± 0.029
TGGGCATTGG | 1.01 ± 0.018
CGGGTTGTAG | 1 ± 0.036
TTTATATC | 1.07 ± 0.11
ATTAATTTTA | 1.02 ± 0.041
TGTTATCAGG | 1.01 ± 0.038
CAGGTTAAGG | 1.01 ± 0.018
ATTTGGCTGT | 0.997 ± 0.023
GAGATGGGGG | 0.981 ± 0.038
AGGGGGTTGA | 1.03 ± 0.032
GGATTTTTTA | 1.006 ± 1.6e-05
GGAAATGGGC | 0.97 ± 0.042
ATTAATAAAG | 0.9984 ± 0.0086
CAATCCATTG | 0.994 ± 0.024
ATGGGATAAG | 0.998 ± 0.029
AATTTGGCAT | 1.012 ± 0.0063
TTGTGTTAGG | 0.994 ± 0.031
TGGGATGGGA | 1 ± 0.024
CCTGGGTTTT | 1.06 ± 0.05
ACCAAATACT | 1.26 ± 0.014
TTTCCTGGGT | 1.14 ± 0.18
ATGGGCGCGG | 0.9903 ± 0.0066
TTTGGGCTAT | 1.021 ± 0.0064

Sequence | switch fluorescence ratio
AGGGGAGGGC | 0.998 ± 0.042
ATTAGGATAG | 1 ± 0.054
GGTCATTGGA | 1.09 ± 0.064
GGATGCAAGT | 0.998 ± 0.039
ACATCGGTTG | 0.976 ± 0.028
GGGTCGCGGG | 0.9946 ± 0.0024
GGGATACGGT | 1.0248 ± 0.00074
GGGAAAAAGC | 0.993 ± 0.04
GAACTTGGCG | 1.01 ± 0.041
CTCCGGCGCA | 4.19 ± 0.76
CTACTTTGGG | 1.01 ± 0.027
TGAGGGTGGG | 1.01 ± 0.058
GCAGGGGCCC | 1.02 ± 0.027
TTAACTTTTT | 1.07 ± 0.053
AGGGCGTCGA | 0.986 ± 0.034
TTTTGGCATG | 1.03 ± 0.034
TTATCTCATT | 1 ± 0.028
AGCACATTTG | 0.97 ± 0.017
TACGGCAGGG | 1.059 ± 0.0024
TAGAGGGGAG | 1.02 ± 0.022
AGGGTATGAA | 0.998 ± 0.022
TAATAATTCG | 1.01 ± 0.012
ACTTCCGTTC | 1.35 ± 0.017
ACAGGTCTGT | 0.9797 ± 0.0047
AGACAGAGGG | 0.988 ± 0.012

Sequence | switch fluorescence ratio
TAAAAATTTT | 0.999 ± 0.01
TAACGGTCAG | 1.025 ± 0.0095
TATTTATTTT | 1.01 ± 0.03
GGATCGCGAG | 0.9797 ± 0.0074
GTTTTATGCG | 1.02 ± 0.035
GACTCTACGG | 1.05 ± 0.032
TAGGGGACAG | 1.03 ± 0.058
GTTGAACCGG | 0.988 ± 0.02
TTGCTCAGGG | 1.03 ± 0.041
ACCGCGAGGA | 1.54 ± 0.57
GGGCAAATTC | 1.08 ± 0.02
CGGGCTACTA | 1.05 ± 0.016
GGAACTCATG | 0.959 ± 0.046
GATTTCAGTG | 0.974 ± 0.023
CCTATTACTT | 1 ± 0.034
GAGTACCTGG | 1.01 ± 0.04
TGATACTCTG | 1.03 ± 0.029
ATTTTTGAAT | 1.01 ± 0.029
AAGGTTGGGA | 0.962 ± 0.039
GAACGGGGGA | 0.988 ± 0.035
GGGATATGGT | 0.986 ± 0.019
AAAATGAAGA | 0.993 ± 0.026
TTGAATTGGG | 0.999 ± 0.046
TCAGGTGGGG | 1.07 ± 0.046
CAAATGAAGT | 1.02 ± 0.018

Sequence | switch fluorescence ratio
ACTGGTATA | 0.994 ± 0.032
AACCGCGGTG | 0.984 ± 0.011
ACACAACTGT | 1.14 ± 0.077
GCTAATGTGC | 1.02 ± 0.018
TGCAAGAAGT | 1.022 ± 0.0069
AAACTGGGCG | 1.04 ± 0.062
TTTGTAGGCC | 0.989 ± 0.03
AAGGGTGCTT | 1.018 ± 0.006
CGTGCATTGA | 1.03 ± 0.022
GTGGGACATA | 0.999 ± 0.044
GAAATGCGCA | 1.08 ± 0.17
TATGGGTTCT | 1 ± 0.031
CGTAATTTCT | 1.06 ± 0.038
TTTGAGCATA | 1.06 ± 0.042
ATATCGTTCG | 1.02 ± 0.054
ATCGGCGCGC | 0.9957 ± 0.0026
AGGCCAGCTG | 0.993 ± 0.062
AAATTAGTG | 1.05 ± 0.059
GGGGTTGGTG | 0.989 ± 0.02
AGGGGGCTAT | 1.02 ± 0.015
TCGGTGATTG | 0.991 ± 0.016
TGCGGGGTTT | 1.02 ± 0.054
TTTACTTCTC | 1.02 ± 0.032
TCGTCGGGGA | 1.01 ± 0.014
CCCGGGGTGT | 3.55 ± 0.15

Sequence | switch fluorescence ratio
TAATGCTTGG | 1.01 ± 0.031
GGACGTGGGG | 0.953 ± 0.069
GACGATAGTT | 0.977 ± 0.026
TGGGGTTCTA | 0.992 ± 0.026
TTTTATGGT | 1.013 ± 0.0067
GGGGCCCGGC | 0.904 ± 0.013
GGCAATATAG | 1.141 ± 0.006
CATTTTGGTT | 0.995 ± 0.036
AAGAGACAGA | 1.25 ± 0.066
AATTGTGGGG | 0.983 ± 0.057
TAGAAAGATT | 1.02 ± 0.016
GGCTGGATTT | 0.98525 ± 0.00086
TGGTTGCAGC | 1 ± 0.055
TTTTAGTCT | 1.01 ± 0.023
TAAGGTTCTT | 1.01 ± 0.011
GGGGCCCCGT | 1.016 ± 0.0043
AGGTTTGTGA | 0.995 ± 0.029
TTTGAAGGAA | 0.986 ± 0.017
AGTAGGGGTG | 1.01 ± 0.032
TCAAGTGCTT | 0.9688 ± 0.0071
AACTTATCGG | 1.01 ± 0.036
AGGTGACGG | 0.993 ± 0.058
TTCGGAGTT | 1.04 ± 0.017
CGTTATTGCT | 1.016 ± 0.0039
CCAGGGGTTT | 2.66 ± 2.4

Sequence | switch fluorescence ratio
TAGCGTGTTG | 1.02 ± 0.031
GAGTTTGGGC | 1.01 ± 0.039
GATTTTTATT | 0.988 ± 0.025
CCAGTGACAT | 1.03 ± 0.028
CTAGGTGGGT | 1.01 ± 0.027
GGGGTCATTG | 0.988 ± 0.023
GCAAGGCGAG | 1.3 ± 0.031
ATATCCCTGG | 1.11 ± 0.013
CTATAGAAGG | 1.02 ± 0.025
TTCCATGGGA | 0.9894 ± 0.0098
AAGGGGACGG | 1 ± 0.03
CGTCCCCGAG | 1.054 ± 0.0087
GGTTTTTTTA | 0.983 ± 0.032
CTGGGAGGGG | 1.01 ± 0.029
GTGTGTAATT | 1.01 ± 0.059
TCGTTGACGT | 0.985 ± 0.04
TTTTGCTCGG | 0.998 ± 0.025
TAGTATAGTT | 0.98 ± 0.016
CTTTACTTCC | 2.1 ± 0.024
TAACGGGTTT | 1.02 ± 0.015
CGGGCTATTC | 1.22 ± 0.034
GTAAGTCATT | 1 ± 0.029
GAGGTCTGTT | 0.959 ± 0.029
GCGTTCATAG | 0.995 ± 0.023
CCCATCTTTT | 1 ± 0.0025

Sequence | switch fluorescence ratio
GATGCGGGGC | 1.06 ± 0.03
GATGGTGTTT | 1 ± 0.034
CACGCCTTAT | 1.034 ± 0.0043
GAGATACATG | 1.02 ± 0.044
GTTATTGCTC | 1.12 ± 0.19
GTGATTTGCG | 1.008 ± 0.0036
GTTTACTTAT | 1.037 ± 0.0024
CTCGGTGGTG | 0.959 ± 0.024
TTTCCTTGTT | 1.09 ± 0.057
TTTTGTGGAT | 1.05 ± 0.053
TTTACAGATA | 1 ± 0.018
CGGGGGTTAA | 0.9908 ± 0.0021
ATCTGTCAGT | 0.9807 ± 0.0092
GGGTTAGATT | 0.993 ± 0.06
ATGCCAGCGC | 1.02 ± 0.025
AGAGTAGAGT | 0.9995 ± 0.0088
TGGGGCCCGG | 0.984 ± 0.019
TTGGGATTTA | 0.95 ± 0.015
TGAGAGGTGG | 1 ± 0.036
TAAGCTTGTA | 1.01 ± 0.022
GCTTGATGTG | 0.986 ± 0.015
TCGATTGGCG | 1.07 ± 0.1
CGTTGAGTTT | 0.994 ± 0.047
CGCATCTGGG | 1.09 ± 0.017
GCCTTAGTCT | 0.962 ± 0.098
